Measured values reported in the supplement of paper PMC10567573.

B1: VPS39 (parent)
chain: ITEEKVCMVCKKKIGNSAFARYPN
B2: CLCN6 (parent)
chain: ILRSQLVTLLVRGVCYSESQSSAS

Variants of: B1
Experiment: protein stability index of a GFP-peptide fusion (GPS, HEK-293T) (PSI 1-6); higher = more stable
Conditions: c terminus: a fixed tail appended
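Also: lentivirally expressed fusions sorted by FACS into six bins by GFP to DsRed ratio, PSI derived from sequencing read proportions per bin multiplied by bin number.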

Protein stability index: each site, then its substitutions
T2: W 1.77, P 2.53, K 2.42, M 2.02, L 3.59, V 2.67, Q 3.19, A 2.94, F 2.9, C 2.32, D 2.92, S 2.27, E 2.72, Y 2.34, R 2.55, H 3.16, G 2.15, I 2.43, N 2.79
I1: P 2.35, S 2.59, A 2.97, F 2.67, E 3.18, M 2.2, L 2.5, H 2.59, Y 2.49, R 2.13, Q 2.91, C 2.24, K 2.6, W 2.33, G 3.1, D 3.39, N 2.78, T 2.88, V 2.95

Variants of: B2
Experiment: as above
Conditions: c terminus: a fixed tail appended

Protein stability index, by site and new letter:
L6: P 2.04, C 3.02, D 1.55, G 2.86, V 1.64, W 3.18, Y 2.02, E 1.88, R 2.67, H 2.17, K 2.08, A 2.2, N 1.76, T 2, F 2.41, M 1.98, S 1.42
Y16: S 2.22, C 2.31, T 3.87, P 3.6, V 2.94, E 1.94, A 3.1, W 2.61, H 2.77, K 1.32, I 2.94, L 3.45
L2: K 2.42, D 1.66, M 3.88, R 1.95, N 2.06, C 3.49, P 2.01, Y 3.62, E 1.93, Q 2.62, F 2.44, S 3.23, H 1.3
T8: E 3.03, W 2.28, M 2.8, G 2.01, K 2.88, P 2.12, C 3.51, H 2.18, Y 2.21, V 2.62, S 2.29, R 2.81
S21: P 1.34, M 2.12, Y 2.89, I 2.59, L 2.14, F 2.54, A 3.29, K 2.66, N 2.81
V7: H 2.63, E 2.37, T 2.46, G 1.75, L 3.31, K 2.23, N 1.99, Y 3.04, M 2.25, P 1.98, Q 2.43, D 2.45, I 2.83, C 2.66
V14: I 2.79, E 1.47, H 2.01, T 3.29, Q 3.26, F 2.46, K 2.87, G 2.1, M 1.59, R 2.67, S 2.76
V11: Q 2, E 1.54, D 2.02, P 2.1, K 2, R 2.01, M 3.46, L 4.2, Y 2.19, H 2.78, W 2.92, T 2.8, S 1.78, A 2.77, C 2.1, G 2.39
A23: W 4.14, H 2.38, T 2, Q 3.96, F 3.27, N 4.11, V 1.81, P 3.09, S 2.38, C 2.96, I 4.16, Y 3, M 2.75, E 2.41
I1: K 3.63, T 2.87, C 2.09, R 2.09, W 3.34, A 3.79, G 2.2, D 3.23, F 3.23, S 3.03, M 3.86
C15: P 2.23, G 3.11, I 3.23, Y 4.15, F 4.46, H 1.73, R 3.44, A 3.2, D 1.89, N 1.57, K 1.13
G13: N 3.53, P 2.69, S 2.89, F 4.5, V 3.06, D 3.12, L 2.53, E 1.72, H 3.18, I 2.7
S22: P 2.17, V 2.66, I 2.29, N 1.92, M 3.01, F 4.37, Q 3.86, A 1.76, Y 3.28, H 3.54, T 2.11, D 1.44, K 3.18, R 3.39
L10: E 2.53, R 2.14, K 2.05, Q 1.72, V 1.92, W 3.87, D 1.8, T 2.46, P 2.52, Y 2.23, H 2.07, N 2.49, A 1.07, S 1.31, I 2.14, M 2.93, C 2.21
L9: G 1.8, D 1.77, R 1.6, E 1.94, C 3.61, T 2.92, W 2.83, A 3.4, S 1.6, H 1.39, M 2.5, F 4.09, N 1.59, Q 1.69, K 1.99
R3: M 2.62, K 3.85, I 3.78, Q 3.3, Y 2.72, C 3.38, W 3.08, A 2.34, V 2.67
Q20: T 1.8, C 4.15, D 1.56, G 3.74, I 1.93, A 4.07, F 2.4, W 2.38, H 2.27, K 4.02, V 2.68, L 2.77
S17: Q 1.98, Y 2.78, P 2.5, K 2.16, R 2.36, L 4.34, H 3, A 2.45, I 3.39, F 2.25, N 3.71, D 2.43
E18: Y 2.54, H 2.13, W 2.86, G 3.04, D 2.19, R 2.1, L 2.71, T 4.5, F 5.28, P 3.08, N 3.67, K 5.27, I 3.81, A 2.15
S4: H 3.41, I 3.85, W 3.61, E 3.85, Y 2.3, K 2.19, T 2.68, L 2.56, D 2.21, N 2.54, V 2.58
Q5: F 2.23, N 3.29, V 2.98, P 2.72, D 2.31, T 2.06, Y 3.81, E 3.8, C 3.81, A 1.97, K 2.79, S 3.4
S19: Y 2.44, G 1.57, Q 1.79, A 4.08, W 2.92, F 3.38, C 3.23, T 4.83, L 3.29, H 3.62, M 3.15
S24: Q 1.85, M 4.04, N 2.4, F 3.24, R 2.78, G 3.21, V 2.87, K 2.49, P 3.9, D 2.68
R12: I 2.68, V 3.56, K 3.37, P 2.67, A 2.38, D 2, H 4.29, L 3.03, W 2.29
